In experiment [1] the target is T1, GLP-1R (Homo sapiens, UniProt P43220).
T1 construct: purchased
Put plainly: Cell-Based Tag-Lite GLP-1R Receptor Binding FRET Assay.

Experiment [2] addresses human GLP-1R (constitutively expressed on recombinant HEK293 CRE-luciferase reporter cells) (human) (UniProt P43220). Nature of the experiment: cell-based or functional assay.
Experiment [3] deals with human GLP-1R (constitutively expressed on recombinant HEK293 CRE-luciferase reporter cells) (human, UniProt P43220 24-463). Put plainly: cell-based or functional assay.
Experiment [4] concerns the target GLP-1R on Tag-Lite Glucagon GLP-1 labeled cells. Put plainly: Tag-Lite GLP-1R binding FRET competition assay on cells, with 2% HSA; competitor: red agonist.
Experiment [5] shares this target. Put plainly: Tag-Lite GLP-1R binding FRET competition assay on cells, absence of HSA; competitor: red agonist.

Starred links: 1 amine or outer side, 2 acyl side, 3 side chain; linkers in the order of their positions; H or OH if unused. Non-standard residues stand in square brackets, D forms with d. Residues, ends and D or L forms follow the SMILES beside them. Groups on a side chain read outwards from the residue. No end group written: not given here. *: point of attachment. (CH2)18‑OH = polymethylene chain of 18 CH2 units ending in OH (m = 18), OCCCCCCCCCCCCCCCCCC*; C18 diacid = O=C(O)CCCCCCCCCCCCCCCCC(=O)*; γGlu = O=C(O)[C@H](CCC(=O)[*:2])N[*:1]; Dap = NC[C@H](N)C(=O)O; AEEA = NCCOCCOCC(=O)O; Aib = CC(C)(N)C(=O)O

Chain of GLP-1R on Tag-Lite Glucagon GLP-1 labeled cells (P43220 24-463): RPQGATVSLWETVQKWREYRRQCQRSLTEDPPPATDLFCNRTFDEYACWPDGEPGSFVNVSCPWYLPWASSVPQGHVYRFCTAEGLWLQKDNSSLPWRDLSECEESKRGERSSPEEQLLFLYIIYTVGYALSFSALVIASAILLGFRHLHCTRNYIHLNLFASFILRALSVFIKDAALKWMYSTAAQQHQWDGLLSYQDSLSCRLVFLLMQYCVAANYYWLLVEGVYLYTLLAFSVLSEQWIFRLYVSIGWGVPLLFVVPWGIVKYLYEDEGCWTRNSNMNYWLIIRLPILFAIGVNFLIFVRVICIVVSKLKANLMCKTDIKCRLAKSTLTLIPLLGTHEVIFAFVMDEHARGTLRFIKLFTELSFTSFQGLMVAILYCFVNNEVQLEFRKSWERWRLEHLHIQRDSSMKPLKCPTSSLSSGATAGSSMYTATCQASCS
Chain of human GLP-1R (constitutively expressed on recombinant HEK293 CRE-luciferase reporter cells) (human) (P43220 24-463): as above
T1 sequence (P43220 24-463): as above

As for `CC[C@H](C)[C@H](NC(=O)[C@H](Cc1ccccc1)NC(=O)[C@H](CCC(=O)O)NC(=O)[C@H](CCCCNC(=O)COCCOCCNC(=O)COCCOCCNC(=O)CC[C@H](NC(=O)CCCCCCCCCCCCCCCCC(=O)O)C(=O)O)NC(=O)[C@H](C)NC(=O)[C@H](C)NC(=O)[C@H](CCC(N)=O)NC(=O)CNC(=O)[C@H](CCC(=O)O)NC(=O)C(C)(C)NC(=O)[C@H](Cc1ccc(O)cc1)NC(=O)[C@H](CO)NC(=O)[C@H](CO)NC(=O)[C@@H](NC(=O)[C@H](CC(=O)O)NC(=O)[C@H](CO)NC(=O)[C@@H](NC(=O)[C@H](Cc1ccccc1)NC(=O)[C@@H](NC(=O)CNC(=O)[C@H](CCC(=O)O)NC(=O)C(C)(C)NC(=O)[C@@H](N)Cc1c[nH]cn1)[C@@H](C)O)[C@@H](C)O)C(C)C)C(=O)N[C@@H](C)C(=O)N[C@@H](Cc1c[nH]c2ccccc12)C(=O)N[C@@H](CC(C)C)C(=O)N[C@H](C(=O)NCC(=O)NCC(=O)N1CCC[C@H]1C(=O)N[C@@H](CO)C(=O)N[C@@H](CO)C(=O)NCC(=O)N[C@@H](C)C(=O)N1CCC[C@H]1C(=O)N1CCC[C@H]1C(=O)N1CCC[C@H]1C(=O)N[C@@H](CO)C(N)=O)C(C)C` [APi3713] (H-H[Aib]EGTFTSDVSSY[Aib]EGQAAK([AEEA-AEEA-γGlu-C18 diacid])EFIAWLVGGPSSGAPPPS-NH2; N-terminus assumed), the IC50 in experiment [1] (absence of HSA) worked out at 1.59 µM; in experiment [1] (with 2% HSA), 95.9 µM.

Take semaglutide (peptide): the biological IC50, CRE-luciferase reporter assay in experiment [2] stood at 0.4 nM.

As to liraglutide (peptide), in experiment [2], the biological IC50, CRE-luciferase reporter assay worked out at 30 pM.

For the molecule H[Aib]EGTFTSDVSS[Aib]LEGQAAK([AEEA-AEEA-γGlu-(CH2)18‑OH])EFIAWLVRG[Dap]G [APi3712], in experiment [3], the “biological IC50, CRE-luciferase reporter assay” value (“biological IC50” below) was around 0.66 nM. For the same molecule, the IC50 in experiment [4] turned out to be 179 µM; in experiment [5], 1.7 µM.

B1: APi3710 (peptide)
peptide: HXEGTFTSDVSSXLEGQAAKEFIAWLVRGRG
modifications: GLP-1 numbering (first residue is Xaa7): Aib-ψ[CH2NH] at Xaa8 (reduced peptide bond between Aib and the next residue); Aib at Xaa19; ε-amino group of Lys26 substituted with AEEA-AEEA-γ-Glu-(CH2)m-OH, m is 18
Regarding B1, the IC50 came out at 809 µM in experiment [4] and 4.08 µM in experiment [5].

B2: APi3711 (peptide)
peptide: B1 peptide
modifications: GLP-1 numbering (first residue is Xaa7): Aib at Xaa8 and Xaa19; ε-amino group of Lys26 substituted with AEEA-AEEA-γ-Glu-(CH2)m-OH, m is 18
As for B2, the “biological IC50” value in experiment [3] was around 0.66 nM. For the same molecule, the IC50 came to 77.8 µM in experiment [4] and 0.898 µM in experiment [5].

Consider H[Aib]EGTFTSDVSSY[Aib]EGQAAK([AEEA-AEEA-γGlu-(CH2)18‑OH])EFIAWLVGGPSSGAPPPS-NH2 [APi3713], for which the “biological IC50” value in experiment [3] is around 0.57 nM. Also, the IC50 in experiment [4] was 95.9 µM; in experiment [5] it was 1.59 µM.

As to Y[Aib]EGTFTSDVSS[Aib]LEGQAAK([AEEA-AEEA-γGlu-(CH2)18‑OH])EFIAWLVRGRG [APi3709], the “biological IC50” value in experiment [3] was around 5.4 nM. The IC50 in experiment [4] stood at 129 µM; in experiment [5], 2.48 µM.

Values taken from patent US20250074964A1 (Ambio, Inc., priority 2023, published 2025).
